According to US20160222085A1 (CHILDREN S HOSPITAL OF PHILADELPHIA, published 2016):
Substitutions are numbered along the chain they refer to. Blank lines part the entries; values can stand above or below the molecule they belong to.

T1: Oregon Green 488 maleimide-modified BR (OG488-BR) (human, Oregon Green 488 maleimide on the added N-terminal Cys)
T1 construct: also called fluorescently labeled FVBR
T1 peptide: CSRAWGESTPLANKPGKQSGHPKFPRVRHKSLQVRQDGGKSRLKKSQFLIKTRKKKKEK

T2: TFPI C-terminal tail peptide
T2 construct: The limits are therefore uncertain; also called TFPI peptide
T2 peptide: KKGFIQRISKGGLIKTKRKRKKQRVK

B1: FV-810 (FV-DT), Factor V with amino acids 811-1491 deleted from the B-domain (other, human, UniProt P12259 29-838, looked up)
chain: AQLRQFYVAAQGISWSYRPEPTNSSLNLSVTSFKKIVYREYEPYFKKEKPQSTISGLLGPTLYAEVGDIIKVHFKNKADKPLSIHPQGIRYSKLSEGASYLDHTFPAEKMDDAVAPGREYTYEWSISEDSGPTHDDPPCLTHIYYSHENLIEDFNSGLIGPLLICKKGTLTEGGTQKTFDKQIVLLFAVFDESKSWSQSSSLMYTVNGYVNGTMPDITVCAHDHISWHLLGMSSGPELFSIHFNGQVLEQNHHKVSAITLVSATSTTANMTVGPEGKWIISSLTPKHLQAGMQAYIDIKNCPKKTRNLKKITREQRRHMKRWEYFIAAEEVIWDYAPVIPANMDKKYRSQHLDNFSNQIGKHYKKVMYTQYEDESFTKHTVNPNMKEDGILGPIIRAQVRDTLKIVFKNMASRPYSIYPHGVTFSPYEDEVNSSFTSGRNNTMIRAVQPGETYTYKWNILEFDEPTENDAQCLTRPYYSDVDIMRDIASGLIGLLLICKSRSLDRRGIQRAADIEQQAVFAVFDENKSWYLEDNINKFCENPDEVKRDDPKFYESNIMSTINGYVPESITTLGFCFDDTVQWHFCSVGTQNEILTIHFTGHSFIYGKRHEDTLTLFPMRGESVTVTMDNVGTWMLTSMNSSPRSKKLRLKFRDVKCIPDDDEDSYEIFEPPESTVMATRKMHDRLEPEDEESDADYDYQNRLAAALGIRSFRNSSLNQEEEEFNLTALALENGTEFVSSNTDIIVGSNYSSPSNISKFTVNNLAEPQKAPSHQQATTAGSPLRHLIGKNSVLNSSTAEHSSPYSEDPIEDTDYIEIIPKEEVQSSEDDYAEIDYVPYDDPYKTDVRTNINSSRDPDNIAAWYLRSNNGNRRNYYIAAEEISWDYSEFVQRETDIEDSDDIPEDTTYKKVVFRKYLDSTFTKRDPRGEYEEHLGILGPIIRAEVDDVIQVRFKNLASRPYSLHAHGLSYEKSSEGKTYEDDSPEWFKEDNAVQPNSSYTYVWHATERSGPESPGSACRAWAYYSAVNPEKDIHSGLIGPLLICQKGILHKDSNMPMDMREFVLLFMTFDEKKSWYYEKKSRSSWRLTSSEMKKSHEFHAINGMIYSLPGLKMYEQEWVRLHLLNIGGSQDIHVVHFHGQTLLENGNKQHQLGVWPLLPGSFKTLEMKASKPGWWLLNTEVGENQRAGMQTPFLIMDRDCRMPMGLSTGIISDSQIKASEFLGYWEPRLARLNNGGSYNAWSVEKLAAEFASKPWIQVDMQKEVIITGIQTQGAKHYLKSCYTTEFYVAYSSNQINWQIFKGNSTRNVMYFNGNSDASTIKENQFDPPIVARYIRISPTRAYNRPTLRLELQGCEVNGCSTPLGMENGKIENKQITASSFKKSWWGDYWEPFRARLNAQGRVNAWQAKANNNKQWLEIDLLKIKKITAIITQGCKSLSSEMYVKSYTIHYSEQGVEWKPYRLKSSMVDKIFEGNTNTKGHVKNFFNPPIISRFIRVIPKTWNQSIALRLELFGCDIY
notes: range 1-810;range 1492-2196; Single-chain cofactor-like variant; All residue numbers count on mature Factor V (add 28 for the precursor)
B2: FV-810^QQ (other, human, UniProt P12259 29-838, looked up)
chain: B1 chain with R709Q, R864Q
notes: range 1-810;range 1492-2196; Both thrombin sites (Arg709 and Arg1545) changed to Gln; The same molecule is used for the thrombin-pretreated sample, since both cleavage sites are removed; the assay field says where thrombin pretreatment was used
B3: FV-810^R709Q (other, human, UniProt P12259 29-838, looked up)
chain: B1 chain with R709Q
notes: range 1-810;range 1492-2196; mature numbering
B4: FV-810^R1545Q (other, human, UniProt P12259 29-838, looked up)
chain: B1 chain with R864Q
notes: as for B3
B5: Factor V basic region peptide (FVBR), amino acids 951-1008 of Factor V (peptide)
peptide: SRAWGESTPLANKPGKQSGHPKFPRVRHKSLQVRQDGGKSRLKKSQFLIKTRKKKKEK
notes: Expressed in E. coli as a SUMO fusion; also called FV basic peptide; BR peptide
B6: Bovine BR (Bos taurus Ser938-Lys996) (peptide, UniProt Q28107 966-1024, looked up)
peptide: SRTWGENIPFKNSHGKQSGHPTFLVTRRKPLQDRQDRRNSRLKEGLPLIRTRRKKKEEK

Columns and labels:
[1] = molecular target: FV-810 (FV-DT), Factor V with amino acids 811-1491 deleted from the B-domain (human) (UniProt P12259); test: global fit of prethrombin-2 activation rates (1-50 nM FXa, 0-1000 nM BR, 5 nM FV-810, 50 uM PCPS) to a tight, competitive binding model
[2] = molecular target: FV-810 (FV-DT), Factor V with amino acids 811-1491 deleted from the B-domain (human) (UniProt P12259); test: fluorescence anisotropy displacement of OG488-BR; FXaS195A titrated into 30 nM OG488-BR, 20 nM FV-810, 50 uM PCPS
[3] = molecular target: FV-810 (FV-DT), Factor V with amino acids 811-1491 deleted from the B-domain (human) (UniProt P12259); test: fluorescence anisotropy, displacement; FXa S195A titrated into 30 nM OG488-BR, 20 nM FV-810, 50 uM PCPS, 25 C; displaced ligand: OG488-BR
[4] = molecular target: T1, Oregon Green 488 maleimide-modified BR …; test: fluorescence anisotropy; FV-810 titrated into 20 nM OG488-BR with 50 uM PCPS, 25 C
Method: (§1) Control experiments were performed by titrating FV-810 into buffer containing 10 mM EDTA (X) or by titrating rFVa (▴).
(§2) Steady-state fluorescence anisotropy was measured at 25° C. in a PTI Quanta-Master™ fluorescence spectrophotometer (Photon Technology International, Birmingham, N.J.) using excitation and emission wavelengths of 480 and 520 nm, respectively, with long-pass filters (KV500, CVI Melles Griot) in the emission beam.

[5] = molecular target: T1, Oregon Green 488 maleimide-modified BR …; test: fluorescence anisotropy; FV-810 titrated into 40 nM OG488-BR with 50 uM PCPS, 25 C
Method: as §1, §2

[6] = molecular target: T1, Oregon Green 488 maleimide-modified BR …; test: fluorescence anisotropy; buffer-pretreated FV-810 titrated into 30 nM OG488-BR with 50 uM PCPS
Method: (§3) FV-810, FV-810^R709Q (▴), FV-810^R1545Q (♦), and FV-810^QQ (▪) were pretreated with buffer (FIG. 14A) or thrombin (FIG. 14B).
as §2

[7] = molecular target: T1, Oregon Green 488 maleimide-modified BR …; test: fluorescence anisotropy; FVDT titrated into fluorescently labeled FVBR (probe concentration not given)
[8] = molecular target: T2, TFPI C-terminal tail peptide; test: fluorescence anisotropy; FVDT titrated into the TFPI peptide (label and probe concentration not stated)
[9] = molecular target: T3, Fluorescently-labeled, active site-blocked FXa (UniProt P00742 41-179; P00742 235-488, fluorescently-labeled, active site-blocked (label and blocker not named)); test: fluorescence anisotropy; FVDT titrated into fluorescently labeled, active site-blocked FXa on PCPS liposomes, buffer only (no FVBR); concentration of labeled FXa not given
T3 construct: also called fluorescently labeled FXa

[10] = molecular target: T1, Oregon Green 488 maleimide-modified BR …; test: fluorescence anisotropy; buffer-pretreated FV-810 QQ titrated into 30 nM OG488-BR with 50 uM PCPS
Method: as §3, §2

[11] = molecular target: T1, Oregon Green 488 maleimide-modified BR …; test: fluorescence anisotropy; thrombin-pretreated, hirudin-quenched FV-810 QQ titrated into 30 nM OG488-BR with 50 uM PCPS
Method: as §3, §2

[12] = molecular target: T1, Oregon Green 488 maleimide-modified BR …; test: fluorescence anisotropy; buffer-pretreated FV-810 R709Q titrated into 30 nM OG488-BR with 50 uM PCPS
Method: as §3, §2

[13] = molecular target: T1, Oregon Green 488 maleimide-modified BR …; test: fluorescence anisotropy; buffer-pretreated FV-810 R1545Q titrated into 30 nM OG488-BR with 50 uM PCPS
Method: as §3, §2

[14] = molecular target: B1; test: fluorescence anisotropy displacement; unlabeled BR titrated into 30 nM OG488-BR, 20 nM FV-810, 50 uM PCPS
Method: as §1
(§4) Data were analyzed by nonlinear least squares regression analysis using the Marquardt algorithm (Bevington et al. (1992) Data Reduction and Error Analysis for the Physical Sciences, pp. 141-167, McGraw-Hill, New York), and the quality of each fit was assessed as described (Straume et al. (1992) Methods Enzymol., 210:87-105).

[15] = molecular target: B1; test: fluorescence anisotropy displacement of OG488-BR; 30 nM OG488-BR, 20 nM FV-810, 50 uM PCPS; stoichiometry of 1 assumed
[16] = molecular target: B1; test: global fit of prethrombin-2 activation rates (1-50 nM FXa, 0-1000 nM BR, 5 nM FV-810, 50 uM PCPS) to a tight, competitive binding model
Method: as §4

[17] = molecular target: B1; test: fluorescence anisotropy, displacement; human BR titrated into 30 nM OG488-BR, 20 nM FV-810, 50 uM PCPS, 25 C; competitor: OG488-BR
[18] = molecular target: B1; test: fluorescence anisotropy, displacement; unlabeled BR titrated into 30 nM OG488-BR, 20 nM FV-810, 50 uM PCPS; competitor: OG488-BR [inset]
Method: as §1

[19] = molecular target: B1; test: fluorescence anisotropy, displacement; FVBR titrated into labeled active site-blocked FXa plus FVDT on PCPS liposomes; displaced ligand: labeled FXa
[20] = molecular target: FV-810 (FV-DT), Factor V with amino acids 811-1491 deleted from the B-domain (human) (UniProt P12259); test: fluorescence anisotropy displacement of OG488-BR
[21] = molecular target: FV-810 (FV-DT), Factor V with amino acids 811-1491 deleted from the B-domain (human) (UniProt P12259); test: fluorescence anisotropy displacement of OG488-BR; 30 nM OG488-BR, 20 nM FV-810, 50 uM PCPS; stoichiometry of 1 assumed
[22] = molecular target: FV-810 (FV-DT), Factor V with amino acids 811-1491 deleted from the B-domain (human) (UniProt P12259); test: fluorescence anisotropy, displacement; bovine BR titrated into 30 nM OG488-BR, 20 nM FV-810, 50 uM PCPS, 25 C; competitor: OG488-BR

T3 sequence (P00742 41-179 limits assumed, chain 1 of 2): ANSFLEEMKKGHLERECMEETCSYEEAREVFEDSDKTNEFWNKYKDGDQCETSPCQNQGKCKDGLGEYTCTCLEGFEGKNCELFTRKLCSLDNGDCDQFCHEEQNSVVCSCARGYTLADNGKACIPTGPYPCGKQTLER
T3 sequence (P00742 235-488 limits assumed, chain 2 of 2): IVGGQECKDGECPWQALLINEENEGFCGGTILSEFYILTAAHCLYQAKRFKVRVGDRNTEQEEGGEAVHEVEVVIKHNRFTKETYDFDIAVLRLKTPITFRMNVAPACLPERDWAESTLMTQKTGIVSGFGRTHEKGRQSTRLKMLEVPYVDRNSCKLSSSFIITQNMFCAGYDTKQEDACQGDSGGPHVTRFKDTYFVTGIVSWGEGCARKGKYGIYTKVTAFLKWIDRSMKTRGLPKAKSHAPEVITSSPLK

- Kd [1]: 2 nM
Molecule: Factor Xa (FXa) (from UniProt P00742 41-179; P00742 235-488) (enzyme)

- n (stoichiometry) (mol of FXa/mol of FV-810) [2]: 1.1
- IC50 (read off the curve) [3]: 40 nM
Molecule: catalytically inactive FXa^S195A (from UniProt P00742 41-179; P00742 235-488) (enzyme)

Molecule: B1
- EC50 (read off the curve) [4]: ~8 nM
- EC50 (read off the curve) [5]: ~10 nM
- EC50 (read off the curve) [6]: 10 to 15 nM
- EC50 (read off the curve) [7]: 10 to 15 nM
- EC50 (read off the curve) [8]: ~10 nM
- EC50 (read off the curve) [9]: 6 to 8 nM

Molecule: B2
- EC50 (read off the curve) [10]: ~9 nM
- EC50 (read off the curve) [11]: 10 to 15 nM

Molecule: B3
- EC50 (read off the curve) [12]: 15 to 20 nM

Molecule: B4
- EC50 (read off the curve) [13]: 10 to 15 nM

Molecule: B5
- Kd [14]: 2.1 nM
- Kd [15]: 2.2 nM
- Kd [16]: 34.2 nM
- IC50 (read off the curve) [17]: ~50 nM
- IC50 (read off the curve) [18]: ~50 nM
- IC50 (read off the curve) [19]: ~90 nM

Molecule: B6
- fold weaker binding than the human BR [20]: 10 fold
- Kd [21]: 28.3 nM
- IC50 (read off the curve) [22]: 300 to 400 nM
